Test results: patent US20150284762, “METHOD FOR PRODUCING PROTEIN-NUCLEIC ACID CONJUGATE, AND METHOD FOR DETECTING TARGET SUBSTANCE” (KYUSHU UNIVERSITY, NATIONAL UNIVERSITY CORPORATION, published 2015)

Biological target: thrombin (UniProt P00734;P00734 P00734:328-363,P00734:364-622)
Test: ELONA

Row | Binder | binding result
1 | GGTTGGTGTGGTTGGTTTTTTTTTTTTTTT (ssDNA, 3' single Z-QG-ddUTP crosslinked to NK14-BAP) [(BAP)-aptamer, single label] | binds
2 | GGTTGGTGTGGTTGGTTTTTTTTTTTTTTT (ssDNA, 3' single Z-QG-(PEG)3-ddUTP crosslinked to NK14-BAP) [(BAP)-(PEG)3-aptamer, single label] | binds
3 | GGTTGGTGTGGTTGGTTTTTTTTTTTTTTT (ssDNA) [FITC-thrombin DNA aptamer with T15 linker (30 mer)] | binds
